Source: patent publication US20190241662A1 (ADAGENE, published 2019)
Values belong to the binder of their own block, whether it stands above or below them.

What was measured:
[1] = biological target: T1, recombinant human CTLA4 fused with human Fc and His tag (human, UniProt P16410 36-162, limits assumed); assay: competition ELISA: plate-bound human CTLA4-Fc-His, biotinylated CD80 as blocked ligand
T1 construct: Coated in the CD80 ELISA, biotinylated and in solution in the CD86 ELISA; also called biotinylated human CTLA4 fused with human FC and His tag
T1 sequence (looked up): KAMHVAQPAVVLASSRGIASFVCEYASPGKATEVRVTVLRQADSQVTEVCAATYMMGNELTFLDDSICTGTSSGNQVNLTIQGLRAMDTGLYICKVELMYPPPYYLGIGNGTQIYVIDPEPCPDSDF
Procedure: Antibodies were then tested for their ability to block binding of CTLA4 to its cognate ligands CD80 and CD86 by ELISA. […] Plates were blocked with PBS supplemented with 2% (w/v) skim milk at 37° C. for 1 hour. […] Plates were washed four times, and 100 μL HRP-neutravidin (1:1000) was added to each well and incubated at 37° C. for 1 hour. Plates were washed as previously described, and 50 μL TMB substrate solution was added and incubated at room temperature for 5 minutes before the reaction was stopped by 50 μL sulfate acid (2M).

[2] = biological target: T2, full-length mouse CTLA4 expressed on HEK293F cells (mouse, UniProt P09793 36-223); assay: flow cytometry, transfected HEK293F cells, antibody concentration not printed [Cont.]
T2 construct: whole, on cells
Procedure: (§1) The affinities of the antibodies were also assessed against human and mouse CTLA4 transiently expressed on the surface of HEK293F cells (FIG. 2). Briefly, HEK293F cells were transfected with a plasmid expressing full-length human, monkey or mouse CTLA4 from a bicistronic IRES vector also encoding EGFP, and EGFP expression was used to identify the transfected cells. After 48 hours, the mammalian cell suspension (2×10⁵/well) was transferred to an Eppendorf tube, centrifuged, the supernatant was discarded, the cells were resuspended with 1 mL PBSA (to a density is 4×10⁶ cells/mL), and added to a 96 well plate. […] The cells were then washed once prior to analysis by flow cytometry (Beckman® CytoFlex).

[3] = biological target: T3, full-length human CTLA4 expressed on cells (human, UniProt P16410 36-223); assay: as above
T3 construct: whole, on cells; also called HEK293F/hCTLA-4 cells; HEK293F/hCTLA4 cells
T3 sequence (looked up): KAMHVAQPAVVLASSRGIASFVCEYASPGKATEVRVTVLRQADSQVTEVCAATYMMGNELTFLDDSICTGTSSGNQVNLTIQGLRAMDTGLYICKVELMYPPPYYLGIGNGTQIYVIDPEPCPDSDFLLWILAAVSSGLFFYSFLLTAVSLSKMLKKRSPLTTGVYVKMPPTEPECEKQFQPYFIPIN
Procedure: as §1

[4] = biological target: T3, full-length human CTLA4 expressed on …; assay: flow cytometry blocking: HEK293F cells with human CTLA4, 100 nM antibody, then 100 nM CD80-Fc-Bio (blocked ligand); PBSA panel: Mean 157692, 26.3%
Procedure: Antibodies were also tested for their ability to block binding of CTLA4 to its cognate ligands CD80 and CD86 by flow cytometry. The plasmid encoding full-length human CTLA4 was transiently expressed in HEK293F cells. Cells were washed with staining buffer (PBSA buffer including 1.76 mM KH₂PO₄, 10.14 mM Na₂HPO₄.12H₂O, 2.68 mM KCl, 136.89 mM NaCl and 1% BSA), and resuspended in staining buffer containing 100 nM test antibodies. […] Cells were washed once, and analyzed by CytoFlex flow cytometry.

[5] = biological target: T4, recombinant human CTLA4-Fc (human, UniProt P16410 36-162); assay: BLI Octet, CTLA4-Fc on AHC sensor, Fab 10 ug/mL
T4 construct: also called human CTLA4 fused with human FC fragment; CTLA4-Fc (Sino Biological, 11159-H03H)
T4 sequence (looked up): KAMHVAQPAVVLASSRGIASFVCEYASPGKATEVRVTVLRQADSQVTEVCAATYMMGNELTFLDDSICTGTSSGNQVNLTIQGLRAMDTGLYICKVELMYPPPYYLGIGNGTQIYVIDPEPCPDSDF
Procedure: Proprietary phagemid libraries (see PCT application number PCT/CN2017/098333, incorporated herein by reference in its entirety; see also PCT application number PCT/CN2017/098299, incorporated herein by reference in its entirety) were employed to pan against human CTLA4 antigens. A total of 3-5 rounds of panning were conducted. After the final round of panning, single-colony supernatant ELISA was performed to identify the primary hits that specifically recognized human CTLA4 (see e.g., UniProt Accession Number P16410). The primary hits were defined as those whose ELISA signals were at least twice that of background. The hits were then sequenced, and the unique clones were expressed in E. coli and purified. Their affinities against human CTLA4 were measured by ForteBio Octet RED96 Systems. […] The acquired ForteBio data were processed with Data Acquisition software 7.1, and kinetic data were fitted to a 1:1 Langmuir binding model.

[6] = biological target: T4, recombinant human CTLA4-Fc; assay: ELISA, coated human CTLA4-Fc (as in Example 8)
Procedure: Plates were blocked with PBS supplemented with 3% non-fat milk at 37° C. for 1 hour. After washing, 100 μL of 3-fold serial dilutions of antibodies were added to each well. After incubation at 37° C. for 1 hour, plates were washed four times, and 100 μL HRP conjugated anti-human IgG (Fab specific) (1:6000 dilution) was added to each well. Plates were incubated at 37° C. for 1 hour, washed four times, and then 50 μL TMB substrate solution was added to each well, and the plate was incubated at room temperature. […] The EC₅₀ was evaluated by fitting the ELISA data using the asymmetrical sigmoidal (five-parameter logistic equation) model of GraphPad Prism 6 software.

[7] = biological target: mouse CTLA4 (SPR analyte, construct not stated) (mouse, UniProt P09793 36-162, limits assumed); assay: SPR (Biacore T200), IgG captured by anti-human Fc
From the text: (§2) Binding affinity and kinetics of antibodies against human, monkey and mouse CTLA4 were examined (Table 4) by surface plasmon resonance (SPR) analysis using a Biacore™ T200 instrument (Biacore AB, Uppsala, Sweden) according to the manufacturer's guidelines. Anti-Human IgG (Fc) antibody from Human Antibody Capture Kit (GE BR-1008-39) was immobilized on CM5 chips by coupling of its amine groups onto carboxylated surfaces of sensor chips according to the instructions of an Amine Coupling kit (GE Biacore #BR-1000-50). […] The association and dissociation curves were fitted to a 1:1 Langmuir binding model using Biacore T200 Evaluation Software (Biacore AB) according to the manufacturer's guidelines.

[8] = biological target: T5, monkey CTLA4 (SPR analyte, construct not stated) (monkey, UniProt G7PL88 36-161); assay: SPR (Biacore T200), IgG captured by anti-human Fc
T5 sequence: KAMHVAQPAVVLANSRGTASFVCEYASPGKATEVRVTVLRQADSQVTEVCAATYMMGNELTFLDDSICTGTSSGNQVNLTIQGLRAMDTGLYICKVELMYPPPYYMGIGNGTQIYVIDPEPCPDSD
From the text: as §2

[9] = biological target: T6, recombinant human CTLA4 protein (construct not stated) (human, UniProt P16410 36-162, limits assumed); assay: SPR (Biacore T200), IgG captured by anti-human Fc
T6 construct: also called biotinylated human CTLA4; human recombinant CTLA4 proteins
T6 sequence (looked up): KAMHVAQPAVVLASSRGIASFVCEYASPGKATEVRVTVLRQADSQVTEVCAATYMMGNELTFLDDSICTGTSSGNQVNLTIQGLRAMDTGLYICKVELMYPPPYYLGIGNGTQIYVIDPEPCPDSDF
From the text: as §2

- IC50 (read off the curve) [1]: ~1 nM
- % of cells in upper right quadrant (Q2) [2]: 32.1%
- % of cells in upper right quadrant (Q2) [3]: 27%
- % of cells in upper right quadrant (CD80-positive) in the presence of the antibody [4]: 19.4%
- Mean of the CD80 binding signal in the presence of the antibody [4]: 8180
B1: TY21588 (antibody, V domains shown)
VH: EVQLVESGGGLVQPGGSLRLSCAASGYSISSGYHWDWIRQAPGKGLEWVSGISGYGGSTYYADSVKGRFTISRDNSKNTLYLQLNSLRAEDTAVYYCARHSYYGSGNFDYWGQGTLVTVSS
VL: DIQLTQSPSSLSASVGDRVTITCRASESVDFFGKSFLHWYQQKPGKAPKLLIYDASNLETGVPSRFSGSGSGTDFTLTISSLQPEDFATYYCQQSYSWPPTFGQGTKVEIKR
notes: human IgG1 (hIgG1) from Fab hit B15732

- Kd [5]: 105 nM
B2: B15717 (Fab, V domains shown)
VH: EVQLVESGGGLVQPGGSLRLSCAASGYTFSGYGIHWVRQAPGKGLEWIGEIYHSGSTYYSPSLKSRVTISRDNSKNTLYLQLNSLRAEDTAVYYCARRIDAFDIWGQGTLVTVSS
VL: DIQLTQSPSSLSASVGDRVTITCRASQSVDFDGFSFLHWYQQKPGKAPKLLIYDASSLESGVPSRFSGSGSGTDFTLTISSLQPEDFATYYCQQRDSWPYTFGQGTKVEIKR
notes: Fab from E. coli; also called Fab hit of TY21689

- EC50 [6]: 1500 nM
B3: TY23286 (antibody, V domains shown)
VH: EVQLVESGGGLVQPGGSLRLSCAASGYSISSGYHWSWIRQAPGKGLEWLARIDWDDDKYYSTSLKSRLTISRDNSKNTLYLQLNSLRAEDTAVYYCARSYVYFDYWGQGTLVTVSS
VL: DIQLTQSPSSLSASVGDRVTITCRASQSVRGRFLAWYQQKPGKAPKLLIYDASNRATGIPSRFSGSGSGTDFTLTISSLQPEDFATYYCQQSSSWPPTFGQGTKVEIKR

- EC50 [6]: 3660 nM
B4: TY23291 (antibody, V domains shown)
VH: EVQLVESGGGLVQPGGSLRLSCAASGYSISSGYHWSWIRQAPGKGLEWLARIDWDDDKYYSTSLKSRLTISRDNSKNTLYLQLNSLRAEDTAVYYCARSYVYFDYWGQGTLVTVSS
VL: DIQLTQSPSSLSASVGDRVTITCRASQSVRGRFLAWYQQKPGKAPKLLIYDASNRATGIPSRFSGSGSGTDFTLTISSLQPEDFATYYCQQSSSWPPTFGQGTKVEIKR

- EC50 [6]: 133 nM
B5: TY23289 (antibody, V domains shown)
VH: EVQLVESGGGLVQPGGSLRLSCAASGYSISSGYHWSWIRQAPGKGLEWLARIDWDDDKYYSTSLKSRLTISRDNSKNTLYLQLNSLRAEDTAVYYCARSYVYFDYWGQGTLVTVSS
VL: DIQLTQSPSSLSASVGDRVTITCRASQSVRGRFLAWYQQKPGKAPKLLIYDASNRATGIPSRFSGSGSGTDFTLTISSLQPEDFATYYCQQSSSWPPTFGQGTKVEIKR

- EC50 [6]: 2950 nM
B6: TY23280 (antibody, V domains shown)
VH: EVQLVESGGGLVQPGGSLRLSCAASGYSISSGYHWSWIRQAPGKGLEWLARIDWDDDKYYSTSLKSRLTISRDNSKNTLYLQLNSLRAEDTAVYYCARSYVYFDYWGQGTLVTVSS
VL: DIQLTQSPSSLSASVGDRVTITCRASQSVRGRFLAWYQQKPGKAPKLLIYDASNRATGIPSRFSGSGSGTDFTLTISSLQPEDFATYYCQQSSSWPPTFGQGTKVEIKR

- Kd [5]: 61.2 nM
- koff [5]: 0.00434 s⁻¹
- kon [5]: 70900 M⁻¹ s⁻¹
B7: B15722 (Fab, V domains shown)
VH: EVQLVESGGGLVQPGGSLRLSCAASGFTFSDYGIHWVRQAPGKGLEWIGEIYHSGSTYYSPSLKSRVTISRDNSKNTLYLQLNSLRAEDTAVYYCARDVAPGSSGYYDGFDFWGQGTLVTVSS
VL: DIQLTQSPSSLSASVGDRVTITCRASQGIGSSLAWYQQKPGKAPKLLIYDASNRATGIPSRFSGSGSGTDFTLTISSLQPEDFATYYCQQYDQWPPWTFGQGTKVEIKR
notes: Fab from E. coli; also called Fab hit of TY21587

- Kd [7]: 1.12 nM
- Kd [8]: 2.76 nM
- Kd [9]: 3.95 nM
B8: TY21692 (antibody, V domains shown)
VH: EVQLVESGGGLVQPGGSLRLSCAASGYSITSGHYWSWIRQAPGKGLEWIGDISHSGSTYYSQSLKSRVTISRDNSKNTLYLQLNSLRAEDTAVYYCARGSRTGYFDYWGQGTLVTVSS
VL: DIQLTQSPSSLSASVGDRVTITCRASQSISSYLNWYQQKPGKAPKLLIYDASNLETGVPSRFSGSGSGTDFTLTISSLQPEDFATYYCQHHYGTPLTFGQGTKVEIKR
notes: human IgG1 (hIgG1) from Fab hit B16083

- Kd [5]: 12.1 nM
B9: B15716 (Fab, V domains shown)
VH: EVQLVESGGGLVQPGGSLRLSCAASGYSITSGYYWAWIRQAPGKGLEWVSSISGSGSTTYYADSVKGRFTISRDNSKNTLYLQLNSLRAEDTAVYYCARDGFGYFDYWGQGTLVTVSS
VL: DIQLTQSPSSLSASVGDRVTITCSASSSVSYVYWYQQKPGKAPKLLIYDASSLESGVPSRFSGSGSGTDFTLTISSLQPEDFATYYCVQGLQTPWTFGQGTKVEIKR
notes: Fab from E. coli; also called Fab hit of TY21586

- Kd [5]: 55.5 nM
- koff [5]: 0.00663 s⁻¹
- kon [5]: 120000 M⁻¹ s⁻¹
B10: B15756 (Fab, V domains shown)
VH: EVQLVESGGGLVQPGGSLRLSCAASGFSLSTGGVAVSWIRQAPGKGLEWIGEIYHSGSTYYSPSLKSRVTISRDNSKNTLYLQLNSLRAEDTAVYYCARRIATATYFDYWGQGTLVTVSS
VL: DIQLTQSPSSLSASVGDRVTITCRASQTVFSRYLAWYQQKPGKAPKLLIYDASNRATGIPSRFSGSGSGTDFTLTISSLQPEDFATYYCQQSYYWPPWTFGQGTKVEIKR
notes: Fab from E. coli; also called Fab hit of TY21591
